According to US20170044238A1 (NATIONAL RESEARCH COUNCIL OF CANADA, published 2017):
One block for each binder: values may come before it.

Experiments:
human serum albumin = target: T1, human serum albumin (human, UniProt P02768 25-609); experiment: SPR (Biacore 3000), VL over immobilized human serum albumin
T1 construct: also called HSA
Description: (§1) The KD of the VL against human serum albumin was determined by surface plasmon resonance as described for other domains above. Briefly, the binding of the VL to immobilized human serum albumin was determined by SPR using the BIACORE 3000 (GE Healthcare). Approximately 1,600 RUs of human serum albumin, 1,900 RUs of bovine serum albumin and 2,200 RUs of ovalbumin were immobilized on a research grade CMS sensor chip. An ethanolamine blocked surface was prepared, as a reference, in exactly the same manner as the protein surfaces. Immobilizations were carried out at concentrations of 20 μg/mL in 10 mM acetate buffer pH 4.5 using the amine coupling kit supplied by the manufacturer. The VL was passed through a Superdex 75 column (GE Healthcare) to eliminate any possible aggregates prior to Biacore analysis. For the binding studies, analyses were carried out at 25° C. in 10 mM HEPES, pH 7.4 containing 150 mM NaCl, 3 mM EDTA and 0.005% surfactant P20. The flow rates used were 40 μL/min and sample volumes were 60 μL. For regeneration the surface was washed for 10 min with the running buffer. Data were analyzed with BIAevaluation 4.1 software.

ovalbumin = target: T2, ovalbumin (UniProt P01012 2-386); experiment: SPR (Biacore 3000), VL over immobilized ovalbumin (about 2,200 RUs)
T2 sequence (looked up): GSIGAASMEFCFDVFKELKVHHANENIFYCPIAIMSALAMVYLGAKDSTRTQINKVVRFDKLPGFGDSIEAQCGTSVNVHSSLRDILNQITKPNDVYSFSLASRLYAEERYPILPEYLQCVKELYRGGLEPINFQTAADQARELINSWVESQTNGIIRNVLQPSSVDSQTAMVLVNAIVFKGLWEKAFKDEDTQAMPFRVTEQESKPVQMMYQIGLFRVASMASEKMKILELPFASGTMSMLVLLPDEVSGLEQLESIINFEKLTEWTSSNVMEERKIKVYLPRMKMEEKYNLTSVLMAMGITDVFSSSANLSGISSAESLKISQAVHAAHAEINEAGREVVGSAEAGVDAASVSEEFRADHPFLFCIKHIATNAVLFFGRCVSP
Description: as §1

bovine serum albumin = bovine serum albumin (bovine, UniProt P02769 25-607); experiment: SPR (Biacore 3000), VL over immobilized bovine serum albumin (about 1,900 RUs)
Chain of bovine serum albumin (P02769 25-607 limits assumed): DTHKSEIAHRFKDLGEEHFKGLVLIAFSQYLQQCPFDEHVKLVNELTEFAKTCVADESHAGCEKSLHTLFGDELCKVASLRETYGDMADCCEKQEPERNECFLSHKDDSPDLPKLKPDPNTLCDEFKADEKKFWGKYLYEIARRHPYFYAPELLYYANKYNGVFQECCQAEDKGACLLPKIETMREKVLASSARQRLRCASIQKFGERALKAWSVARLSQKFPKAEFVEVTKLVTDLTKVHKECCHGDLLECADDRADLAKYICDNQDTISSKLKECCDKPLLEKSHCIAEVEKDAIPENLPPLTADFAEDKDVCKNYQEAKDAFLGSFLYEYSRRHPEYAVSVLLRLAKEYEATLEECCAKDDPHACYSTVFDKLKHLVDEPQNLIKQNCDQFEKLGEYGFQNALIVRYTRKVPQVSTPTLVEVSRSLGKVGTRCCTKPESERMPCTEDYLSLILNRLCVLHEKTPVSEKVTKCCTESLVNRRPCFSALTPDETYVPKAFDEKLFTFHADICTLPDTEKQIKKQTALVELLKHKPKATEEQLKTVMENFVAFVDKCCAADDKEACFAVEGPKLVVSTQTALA
Description: as §1

human lysozyme = target: T3, human lysozyme (human, UniProt P61626 19-148); experiment: phage ELISA, phage-displayed VL on immobilized human lysozyme
T3 construct: Bought; passed through Superdex 75 before SPR
T3 sequence (looked up): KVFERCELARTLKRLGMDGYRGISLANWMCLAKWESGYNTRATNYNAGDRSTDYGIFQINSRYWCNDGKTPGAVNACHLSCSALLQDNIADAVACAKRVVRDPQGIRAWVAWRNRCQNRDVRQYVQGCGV

T1 sequence (P02768 25-609 limits assumed): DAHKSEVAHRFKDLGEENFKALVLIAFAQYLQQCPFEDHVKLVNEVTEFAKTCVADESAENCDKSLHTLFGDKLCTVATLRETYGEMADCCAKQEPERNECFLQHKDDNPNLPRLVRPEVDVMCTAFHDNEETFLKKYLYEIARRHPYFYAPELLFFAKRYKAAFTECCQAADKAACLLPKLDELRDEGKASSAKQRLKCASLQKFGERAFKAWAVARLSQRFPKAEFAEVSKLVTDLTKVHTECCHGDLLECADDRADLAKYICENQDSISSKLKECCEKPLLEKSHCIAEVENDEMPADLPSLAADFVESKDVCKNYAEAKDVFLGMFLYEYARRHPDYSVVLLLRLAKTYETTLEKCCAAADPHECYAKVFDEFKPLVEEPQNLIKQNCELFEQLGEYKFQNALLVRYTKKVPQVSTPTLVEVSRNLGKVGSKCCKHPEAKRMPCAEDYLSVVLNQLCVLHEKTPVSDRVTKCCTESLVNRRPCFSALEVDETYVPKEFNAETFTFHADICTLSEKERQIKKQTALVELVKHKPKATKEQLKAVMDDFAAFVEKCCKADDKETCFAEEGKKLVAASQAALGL

Kd (human serum albumin): 800 nM | binding result (ovalbumin): no binding | binding result (bovine serum albumin): no binding
B1: HVLHSA1 (antibody, V domains shown)
VL: DIQMTQSPSSLSASVGDRVTITCRASQSISTYLNWYQQKPGKAPKLLCFGASRLNSGVPSRFSCSGSGTDFTLTISNLQPEDFATYYCRQLFPLPDRRTFGHGTKVTVL
notes: Anti-human serum albumin VL single-domain antibody from the HVLP324S library (Cys48/Cys64); also called anti-human serum albumin VL; not shown: C-terminal His6 tag

binding result (human lysozyme): binds
B2: HVLHLFL (antibody, V domains shown)
VL: DIQMTQSPSSLSASVGDRVTITCLASQSIFLYLDWYQQKPGKAPKLLCFFASTLESGVPSRFSCSGSGTDFTLTISNLQPEDFATYYCQQSYSTPRTFGHGTKVTVL
notes: Anti-human lysozyme VL from the HVLP324S library; KD not determined
